This data set has as its system ATP. Briefly: switch fluorescence ratio, 500 uM ATP over buffer (Cy3 cluster intensity, sum of 5 cycles each) (fold (ratio)); higher = stronger signal-on switching upon ATP binding; sequences stand for … in TCGTCGGCAGCGTCAGATGTGTATAAGAGACAGTTTTTTTTTTTTTTTTTTTTTTTTT…TC. To be noted: aptamer strand: ATP DNA aptamer (quencher-CACCTGGGGGAGTATTGCGGAGGAAGG + anchor), 100 nM annealed; ATP concentration: 500 uM. In short, it runs like this: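 Switching-strand clusters labelled with Cy3 on a modified Illumina MiSeq flow-cell were annealed to 100 nM quencher-labelled ATP aptamer, imaged in selection buffer, and re-imaged after 15 min with 500 uM ATP at 22 °C. This was done over five cycles with NaOH stripping and re-annealing in between. The fluorescence ratio is summed target-cycle over summed buffer-cycle Cy3 intensity per cluster, averaged per switch-domain sequence, excluding clusters outside 100-1000 RFU.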

± gives the standard deviation of the averaged measurements.
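Also: ATP exposure 15 min at 22 °C before imaging.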

With CTGTTTGTTG, the switch fluorescence ratio stood at 0.9707 ± 0.0013.

In the case of TTGTAAGATC, the switch fluorescence ratio amounted to 1.02 ± 0.029.

Regarding TTGGGTGAGT, the switch fluorescence ratio was determined as 1.01 ± 0.014.

With ATAGGCCGTA, the switch fluorescence ratio was 1.03 ± 0.045.

As to GATGAATTGC, the switch fluorescence ratio amounted to 1.01 ± 0.033.

For GAAGTCCATG, the switch fluorescence ratio was 1.01 ± 0.014.

As to GTTATTCAAT, the switch fluorescence ratio came out at 0.9724 ± 0.0018.

Consider TTATGAAGAC, for which the switch fluorescence ratio was 1.025 ± 0.01.

Regarding GGGGGTTGTT, the switch fluorescence ratio turned out to be 0.997 ± 0.025.

On to CGGCTCCCGC, for which the switch fluorescence ratio turned out to be 1.046 ± 0.0084.

Turning to GGTATTGAGG, the switch fluorescence ratio was 0.9871 ± 0.003.

TTATGGGCGG: the switch fluorescence ratio amounted to 1.02 ± 0.047.

As to CAATTAGTGA, the switch fluorescence ratio was 1.01 ± 0.028.

Regarding GGGGACCTGG, the switch fluorescence ratio came to 0.9999 ± 0.0046.

Turning to GAACTGCGGA, the switch fluorescence ratio is 1.01 ± 0.019.

On to TTTAGAACTC, for which the switch fluorescence ratio worked out at 1.19 ± 0.3.

In the case of GTGGCATAGC, the switch fluorescence ratio came out at 0.981 ± 0.023.

Turning to TTTTTACCCT, the switch fluorescence ratio was determined as 1.08 ± 0.067.

For GCGTCTAGGA, the switch fluorescence ratio amounted to 0.9839 ± 0.0033.

On to ATTTGGGACA, for which the switch fluorescence ratio worked out at 1.01 ± 0.012.

As for ATATTTGTGG, the switch fluorescence ratio amounted to 0.9843 ± 0.0088.

Turning to AAATGTTTTG, the switch fluorescence ratio came to 1.03 ± 0.026.

GTGACGAGGG: the switch fluorescence ratio came to 0.981 ± 0.013.

CGGTGAATTT: the switch fluorescence ratio amounted to 0.98263 ± 0.0009.

On to TTTAGCAATG, for which the switch fluorescence ratio came to 1.64 ± 0.34.

Turning to GGAAGGCGGG, the switch fluorescence ratio was 1.11 ± 0.16.

Regarding GGTTTCTACA, the switch fluorescence ratio was 1 ± 0.034.

As for TCGAAATTTT, the switch fluorescence ratio stood at 1 ± 0.022.

On to CGAGTATTAC, for which the switch fluorescence ratio is 1.09 ± 0.04.

As for TCCGCACAGA, the switch fluorescence ratio came to 3.41 ± 0.89.

As for TAGTATAG, the switch fluorescence ratio was 0.9745 ± 0.0045.

As for ATGATTCGTG, the switch fluorescence ratio worked out at 0.972 ± 0.028.

In the case of CGTTCAGGGG, the switch fluorescence ratio was found to be 1.16 ± 0.024.

With GGCGTTTGCT, the switch fluorescence ratio is 0.9827 ± 0.0086.

Take ACACCCAAGT: the switch fluorescence ratio is 1.21 ± 0.14.

Regarding GGGGCTAAGC, the switch fluorescence ratio was 1 ± 0.026.

On to GGGCGCCAAA, for which the switch fluorescence ratio was determined as 1.0045 ± 0.00091.

For GGTGGGTATT, the switch fluorescence ratio came to 0.966 ± 0.021.

With ATAACGTCGG, the switch fluorescence ratio was determined as 0.9867 ± 0.0082.

As for TATGGTTTTT, the switch fluorescence ratio worked out at 0.996 ± 0.015.

Consider TTGGCTTCAT, for which the switch fluorescence ratio worked out at 0.968 ± 0.016.

In the case of TTTTGGGATC, the switch fluorescence ratio worked out at 0.996 ± 0.016.

As to TGGTGGAGTC, the switch fluorescence ratio was 1.02 ± 0.046.

For TTCGCGGCTA, the switch fluorescence ratio is 1.07 ± 0.016.

With TTAGTCCAGA, the switch fluorescence ratio came to 1.007 ± 0.0018.

Take TTATGGTGGT: the switch fluorescence ratio was determined as 0.973 ± 0.027.

As for GAGTACTGTA, the switch fluorescence ratio is 1.14 ± 0.053.

For the sequence GCCGAAGGGG, the switch fluorescence ratio was 1.004 ± 0.0035.

With TGGAGAGGGT, the switch fluorescence ratio came to 0.976 ± 0.0099.

Regarding TCGTAATCGC, the switch fluorescence ratio is 1.4113 ± 0.0014.

For the sequence GATATATGGT, the switch fluorescence ratio came out at 0.9833 ± 0.0077.

Turning to GATATTTTA, the switch fluorescence ratio is 0.9929 ± 0.0069.

For GATAAACGAT, the switch fluorescence ratio came to 1.02 ± 0.031.

TTAACTTTCT: the switch fluorescence ratio was determined as 1.058 ± 0.0094.

Regarding CCTGGGGGTG, the switch fluorescence ratio came out at 1.14 ± 0.074.

Take TTGTGAGCAA: the switch fluorescence ratio amounted to 1.33 ± 0.11.

As for GTGTTTGGTG, the switch fluorescence ratio came to 1 ± 0.032.

For the sequence TGGTGGGGGA, the switch fluorescence ratio is 0.987 ± 0.015.

As for TCGGGGCGGA, the switch fluorescence ratio turned out to be 0.994 ± 0.038.

In the case of AATGGTTGTG, the switch fluorescence ratio was 1 ± 0.022.

On to TTCTCAGTTT, for which the switch fluorescence ratio was found to be 1.15 ± 0.22.

As to GACCCTGATC, the switch fluorescence ratio was determined as 1.17 ± 0.058.

TGGGTAGAAA: the switch fluorescence ratio is 0.975 ± 0.032.

In the case of CCCGGGTAGT, the switch fluorescence ratio is 1.12 ± 0.12.

Turning to ATAGTAGTCA, the switch fluorescence ratio is 1.01 ± 0.024.

For the sequence TTGTTTGTTT, the switch fluorescence ratio amounted to 0.997 ± 0.035.

Take TTGTGGGTAT: the switch fluorescence ratio turned out to be 0.954 ± 0.013.

Regarding CAAAGCAAAA, the switch fluorescence ratio stood at 2.36 ± 2.

AAATATATTC: the switch fluorescence ratio came out at 1.02 ± 0.012.

Consider CTTTAGTCAG, for which the switch fluorescence ratio stood at 1.01 ± 0.016.

For CGTGATGGTA, the switch fluorescence ratio was 0.969 ± 0.0098.

Turning to TAGTTTAGGT, the switch fluorescence ratio turned out to be 0.9964 ± 0.0051.

For TTTTTGCTGC, the switch fluorescence ratio came out at 0.999 ± 0.024.

Turning to TCAGGCGTTT, the switch fluorescence ratio turned out to be 0.996 ± 0.024.

In the case of CAAAGTGAAC, the switch fluorescence ratio is 1.01 ± 0.017.

Turning to GGGGCCGTGC, the switch fluorescence ratio was determined as 1.01 ± 0.038.

On to TTGAATAAGA, for which the switch fluorescence ratio came out at 1 ± 0.071.

As to GGACAGGGGT, the switch fluorescence ratio came out at 1.03 ± 0.073.

The values above are taken from the supplement of paper PMC10126150.
